T1: PTPN13_4, Q12923
T1 sequence (Q12923 1783-1878, limits assumed, looked up): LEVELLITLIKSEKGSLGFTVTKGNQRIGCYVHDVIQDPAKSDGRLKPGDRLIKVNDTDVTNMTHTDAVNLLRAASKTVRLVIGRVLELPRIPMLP

T2: LNX2_4, Q8N448
T2 sequence (Q8N448 595-690, limits assumed, looked up): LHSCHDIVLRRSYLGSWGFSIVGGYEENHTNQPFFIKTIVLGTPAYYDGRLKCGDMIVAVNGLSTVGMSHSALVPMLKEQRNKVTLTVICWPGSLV

T3: SNTB2, Q13425
T3 sequence (Q13425 110-208, limits assumed, looked up): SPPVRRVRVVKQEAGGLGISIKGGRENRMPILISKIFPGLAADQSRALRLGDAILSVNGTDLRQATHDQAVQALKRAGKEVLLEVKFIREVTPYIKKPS

T4: SHROOM3, Q8TF72
T4 sequence (Q8TF72 20-120, limits assumed, looked up): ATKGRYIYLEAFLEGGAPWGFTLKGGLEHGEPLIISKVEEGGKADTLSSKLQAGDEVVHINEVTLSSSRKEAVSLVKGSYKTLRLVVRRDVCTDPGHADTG

T5: PDZD2_6, O15018
T5 sequence (O15018 2745-2839, limits assumed, looked up): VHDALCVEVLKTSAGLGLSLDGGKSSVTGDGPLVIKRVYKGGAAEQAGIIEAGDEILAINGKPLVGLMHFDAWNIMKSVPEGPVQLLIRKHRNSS

T6: PDZRN3_2, Q9UPQ7
T6 sequence (Q9UPQ7 414-513, limits assumed, looked up): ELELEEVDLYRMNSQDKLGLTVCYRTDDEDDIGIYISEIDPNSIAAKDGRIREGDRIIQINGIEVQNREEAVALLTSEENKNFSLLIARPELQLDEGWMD

T7: PTPN4, P29074
T7 sequence (P29074 512-599, limits assumed, looked up): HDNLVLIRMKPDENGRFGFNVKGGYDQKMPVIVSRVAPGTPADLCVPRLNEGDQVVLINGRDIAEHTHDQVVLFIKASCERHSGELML

T8: USH1C_3, Q9Y6N9
T8 sequence (Q9Y6N9 447-547, limits assumed, looked up): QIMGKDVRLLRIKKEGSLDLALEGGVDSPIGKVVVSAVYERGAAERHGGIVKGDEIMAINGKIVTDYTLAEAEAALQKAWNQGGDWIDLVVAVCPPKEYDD

T9: NHERF1_2, O14745
T9 sequence (O14745 149-244, limits assumed, looked up): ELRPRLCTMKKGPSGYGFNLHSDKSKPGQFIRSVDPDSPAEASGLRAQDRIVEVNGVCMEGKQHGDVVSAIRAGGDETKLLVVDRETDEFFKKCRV

T10: PDZD2_4, O15018
T10 sequence (O15018 723-823, limits assumed, looked up): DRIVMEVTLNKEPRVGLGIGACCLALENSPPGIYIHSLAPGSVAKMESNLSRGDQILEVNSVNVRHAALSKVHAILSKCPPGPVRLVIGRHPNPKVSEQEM

T11: PDZD4, Q76G19
T11 sequence (Q76G19 125-224, limits assumed, looked up): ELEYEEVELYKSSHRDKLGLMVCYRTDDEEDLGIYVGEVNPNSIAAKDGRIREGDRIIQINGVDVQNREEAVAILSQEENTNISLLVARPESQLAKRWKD

T12: TJP3_2, O95049
T12 sequence (O95049 190-282, limits assumed, looked up): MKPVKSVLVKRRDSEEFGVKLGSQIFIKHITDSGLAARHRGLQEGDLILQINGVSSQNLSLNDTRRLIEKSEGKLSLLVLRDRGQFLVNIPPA

T13: SIPA1L3, O60292
T13 sequence (O60292 961-1052, limits assumed, looked up): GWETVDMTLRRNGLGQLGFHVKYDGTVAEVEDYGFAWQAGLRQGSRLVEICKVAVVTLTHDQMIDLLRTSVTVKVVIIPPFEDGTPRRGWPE

T14: PDZD2_1, O15018
T14 sequence (O15018 80-192, limits assumed, looked up): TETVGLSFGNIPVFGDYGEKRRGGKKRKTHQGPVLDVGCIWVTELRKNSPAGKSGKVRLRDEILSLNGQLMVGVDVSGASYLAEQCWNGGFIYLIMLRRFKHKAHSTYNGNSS


target: T1, PTPN13_4, Q12923; assay: holdup assay; parameters: key: below the threshold = too weak to quantify, mostly under pKd 3.1 to 4; conditions: plain residues with an end cap or a label only (N-terminal biotin on a linker: ttds)

Row | Binder | pKd
1 | SEKHFRETEV [HTLV1-TAX1, P03409] | below the threshold
2 | CLDTSRETDL [KCNA5, P22460] | below the threshold

target: T2, LNX2_4, Q8N448; assay: holdup assay; parameters: key: below the threshold = too weak to quantify, mostly under pKd 3.1 to 4; conditions: plain residues with an end cap or a label only (N-terminal biotin on a linker: ttds)

Row | Binder | pKd
3 | SEKHFRETEV [HTLV1-TAX1, P03409] | below the threshold
4 | CLDTSRETDL [KCNA5, P22460] | below the threshold

target: T3, SNTB2, Q13425; assay: holdup assay; parameters: key: below the threshold = too weak to quantify, mostly under pKd 3.1 to 4; conditions: plain residues with an end cap or a label only (N-terminal biotin on a linker: ttds)

Row | Binder | pKd
5 | CLDTSRETDL [KCNA5, P22460] | 4.91

target: T4, SHROOM3, Q8TF72; assay: holdup assay; parameters: key: below the threshold = too weak to quantify, mostly under pKd 3.1 to 4; conditions: plain residues with an end cap or a label only (N-terminal biotin on a linker: ttds)

Row | Binder | pKd
6 | SEKHFRETEV [HTLV1-TAX1, P03409] | below the threshold
7 | CLDTSRETDL [KCNA5, P22460] | below the threshold

target: T5, PDZD2_6, O15018; assay: holdup assay; parameters: key: below the threshold = too weak to quantify, mostly under pKd 3.1 to 4; conditions: plain residues with an end cap or a label only (N-terminal biotin on a linker: ttds)

Row | Binder | pKd
8 | SEKHFRETEV [HTLV1-TAX1, P03409] | below the threshold
9 | CLDTSRETDL [KCNA5, P22460] | below the threshold

target: T6, PDZRN3_2, Q9UPQ7; assay: holdup assay; parameters: key: below the threshold = too weak to quantify, mostly under pKd 3.1 to 4; conditions: plain residues with an end cap or a label only (N-terminal biotin on a linker: ttds)

Row | Binder | pKd
10 | SEKHFRETEV [HTLV1-TAX1, P03409] | below the threshold
11 | CLDTSRETDL [KCNA5, P22460] | below the threshold

target: PTPN13_2, Q12923; assay: holdup assay; parameters: key: below the threshold = too weak to quantify, mostly under pKd 3.1 to 4; conditions: plain residues with an end cap or a label only (N-terminal biotin on a linker: ttds)
Sequence (Q12923 1363-1462): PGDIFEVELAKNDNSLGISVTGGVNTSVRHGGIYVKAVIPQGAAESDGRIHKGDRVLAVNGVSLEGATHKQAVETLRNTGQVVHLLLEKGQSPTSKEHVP

Row | Binder | pKd
12 | SEKHFRETEV [HTLV1-TAX1, P03409] | below the threshold
13 | CLDTSRETDL [KCNA5, P22460] | below the threshold

target: T7, PTPN4, P29074; assay: holdup assay; parameters: key: below the threshold = too weak to quantify, mostly under pKd 3.1 to 4; conditions: plain residues with an end cap or a label only (N-terminal biotin on a linker: ttds)

Row | Binder | pKd
14 | SEKHFRETEV [HTLV1-TAX1, P03409] | 4.77
15 | CLDTSRETDL [KCNA5, P22460] | 4.07

target: T8, USH1C_3, Q9Y6N9; assay: holdup assay; parameters: key: below the threshold = too weak to quantify, mostly under pKd 3.1 to 4; conditions: plain residues with an end cap or a label only (N-terminal biotin on a linker: ttds)

Row | Binder | pKd
16 | SEKHFRETEV [HTLV1-TAX1, P03409] | below the threshold
17 | CLDTSRETDL [KCNA5, P22460] | below the threshold

target: SCRIB_4, Q14160; assay: holdup assay; parameters: key: below the threshold = too weak to quantify, mostly under pKd 3.1 to 4; conditions: plain residues with an end cap or a label only (N-terminal biotin on a linker: ttds)
Sequence (Q14160 1095-1204): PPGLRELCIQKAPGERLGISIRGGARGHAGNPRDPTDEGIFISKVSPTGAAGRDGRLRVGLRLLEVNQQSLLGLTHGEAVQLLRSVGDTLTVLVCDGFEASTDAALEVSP

Row | Binder | pKd
18 | SEKHFRETEV [HTLV1-TAX1, P03409] | 4.43
19 | CLDTSRETDL [KCNA5, P22460] | below the threshold

target: PARD3B_2, Q8TEW8; assay: holdup assay; parameters: key: below the threshold = too weak to quantify, mostly under pKd 3.1 to 4; conditions: plain residues with an end cap or a label only (N-terminal biotin on a linker: ttds)
Sequence (Q8TEW8 376-471): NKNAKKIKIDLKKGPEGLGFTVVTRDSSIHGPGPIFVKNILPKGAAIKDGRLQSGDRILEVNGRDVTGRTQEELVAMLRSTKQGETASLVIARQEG

Row | Binder | pKd
20 | SEKHFRETEV [HTLV1-TAX1, P03409] | 3.97
21 | CLDTSRETDL [KCNA5, P22460] | below the threshold

target: T9, NHERF1_2, O14745; assay: holdup assay; parameters: key: below the threshold = too weak to quantify, mostly under pKd 3.1 to 4; conditions: plain residues with an end cap or a label only (N-terminal biotin on a linker: ttds)

Row | Binder | pKd
22 | SEKHFRETEV [HTLV1-TAX1, P03409] | below the threshold
23 | CLDTSRETDL [KCNA5, P22460] | below the threshold

target: T10, PDZD2_4, O15018; assay: holdup assay; parameters: key: below the threshold = too weak to quantify, mostly under pKd 3.1 to 4; conditions: plain residues with an end cap or a label only (N-terminal biotin on a linker: ttds)

Row | Binder | pKd
24 | SEKHFRETEV [HTLV1-TAX1, P03409] | below the threshold
25 | CLDTSRETDL [KCNA5, P22460] | below the threshold

target: CARD14, Q9BXL6; assay: holdup assay; parameters: key: below the threshold = too weak to quantify, mostly under pKd 3.1 to 4; conditions: plain residues with an end cap or a label only (N-terminal biotin on a linker: ttds)
Sequence (Q9BXL6 558-663): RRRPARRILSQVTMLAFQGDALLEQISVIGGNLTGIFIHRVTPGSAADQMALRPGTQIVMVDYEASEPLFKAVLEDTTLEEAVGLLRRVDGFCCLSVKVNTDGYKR

Row | Binder | pKd
26 | SEKHFRETEV [HTLV1-TAX1, P03409] | below the threshold
27 | CLDTSRETDL [KCNA5, P22460] | below the threshold

target: NHERF4_3, Q86UT5; assay: holdup assay; parameters: key: below the threshold = too weak to quantify, mostly under pKd 3.1 to 4; conditions: plain residues with an end cap or a label only (N-terminal biotin on a linker: ttds)
Sequence (Q86UT5 325-412): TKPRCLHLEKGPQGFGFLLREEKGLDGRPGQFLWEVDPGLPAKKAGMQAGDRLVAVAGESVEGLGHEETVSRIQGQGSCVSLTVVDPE

Row | Binder | pKd
28 | SEKHFRETEV [HTLV1-TAX1, P03409] | 3.83
29 | CLDTSRETDL [KCNA5, P22460] | below the threshold

target: T11, PDZD4, Q76G19; assay: holdup assay; parameters: key: below the threshold = too weak to quantify, mostly under pKd 3.1 to 4; conditions: plain residues with an end cap or a label only (N-terminal biotin on a linker: ttds)

Row | Binder | pKd
30 | SEKHFRETEV [HTLV1-TAX1, P03409] | below the threshold
31 | CLDTSRETDL [KCNA5, P22460] | below the threshold

target: LMO7, Q8WWI1; assay: holdup assay; parameters: key: below the threshold = too weak to quantify, mostly under pKd 3.1 to 4; conditions: plain residues with an end cap or a label only (N-terminal biotin on a linker: ttds)
Sequence (Q8WWI1 1037-1138): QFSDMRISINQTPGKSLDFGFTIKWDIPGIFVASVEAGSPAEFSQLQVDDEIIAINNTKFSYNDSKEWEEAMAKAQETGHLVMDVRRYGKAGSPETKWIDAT

Row | Binder | pKd
32 | SEKHFRETEV [HTLV1-TAX1, P03409] | below the threshold
33 | CLDTSRETDL [KCNA5, P22460] | below the threshold

target: DVL2, O14641; assay: holdup assay; parameters: key: below the threshold = too weak to quantify, mostly under pKd 3.1 to 4; conditions: plain residues with an end cap or a label only (N-terminal biotin on a linker: ttds)
Sequence (O14641 260-359): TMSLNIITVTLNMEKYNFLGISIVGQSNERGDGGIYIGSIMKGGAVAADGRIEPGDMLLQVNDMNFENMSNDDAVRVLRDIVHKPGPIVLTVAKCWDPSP

Row | Binder | pKd
34 | SEKHFRETEV [HTLV1-TAX1, P03409] | below the threshold
35 | CLDTSRETDL [KCNA5, P22460] | below the threshold

target: T12, TJP3_2, O95049; assay: holdup assay; parameters: key: below the threshold = too weak to quantify, mostly under pKd 3.1 to 4; conditions: plain residues with an end cap or a label only (N-terminal biotin on a linker: ttds)

Row | Binder | pKd
36 | SEKHFRETEV [HTLV1-TAX1, P03409] | below the threshold
37 | CLDTSRETDL [KCNA5, P22460] | below the threshold

target: PDLIM4, P50479; assay: holdup assay; parameters: key: below the threshold = too weak to quantify, mostly under pKd 3.1 to 4; conditions: plain residues with an end cap or a label only (N-terminal biotin on a linker: ttds)
Sequence (P50479 1-83): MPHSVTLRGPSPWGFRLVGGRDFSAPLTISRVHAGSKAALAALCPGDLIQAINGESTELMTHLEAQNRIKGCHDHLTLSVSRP

Row | Binder | pKd
38 | SEKHFRETEV [HTLV1-TAX1, P03409] | 4.54
39 | CLDTSRETDL [KCNA5, P22460] | 4.26

target: T13, SIPA1L3, O60292; assay: holdup assay; parameters: key: below the threshold = too weak to quantify, mostly under pKd 3.1 to 4; conditions: plain residues with an end cap or a label only (N-terminal biotin on a linker: ttds)

Row | Binder | pKd
40 | SEKHFRETEV [HTLV1-TAX1, P03409] | below the threshold
41 | CLDTSRETDL [KCNA5, P22460] | below the threshold

target: T14, PDZD2_1, O15018; assay: holdup assay; parameters: key: below the threshold = too weak to quantify, mostly under pKd 3.1 to 4; conditions: plain residues with an end cap or a label only (N-terminal biotin on a linker: ttds)

Row | Binder | pKd
42 | SEKHFRETEV [HTLV1-TAX1, P03409] | below the threshold
43 | CLDTSRETDL [KCNA5, P22460] | below the threshold

target: MAGIX, Q9H6Y5; assay: holdup assay; parameters: key: below the threshold = too weak to quantify, mostly under pKd 3.1 to 4; conditions: plain residues with an end cap or a label only (N-terminal biotin on a linker: ttds)
Sequence (Q9H6Y5 118-211): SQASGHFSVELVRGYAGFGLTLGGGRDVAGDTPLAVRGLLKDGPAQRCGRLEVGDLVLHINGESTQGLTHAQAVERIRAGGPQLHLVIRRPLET

Row | Binder | pKd
44 | SEKHFRETEV [HTLV1-TAX1, P03409] | below the threshold
45 | CLDTSRETDL [KCNA5, P22460] | below the threshold
